Data reported in publication PMC8304084, “A Concerted Action of UBA5 C-Terminal Unstructured Regions Is Important for Transfer of Activated UFM1 to UFC1” (International Journal of Molecular Sciences, 2021).

Columns and labels:
Assay type in all cases: binding
UFM1 = molecular target: T1, UFM1 (Homo sapiens, UniProt P61960); experiment: ITC, UBA5 peptides vs UFM1; details: 25 °C
T1 construct: Full length UFM1, residues 2–83; modified ubiquitin tag (Ub19) with TEV site (N, cleaved yes); made in house; host or cells: E. coli T7 Express
Excerpt: (§1) To understand how the UBA5 C-terminus participates in the ufmylation cascade, we performed isothermal titration calorimetry (ITC) experiments, in which we titrated UBA5 C-terminal peptides (see Table 1) to the UBA5 AD, UFC1, UFM1 and representative LC3/GABARAP proteins (Figure 2A, Supplementary Figure S2A–D and Table 2).
All proteins and peptides were expressed in E.Coli T7 Express (New England Biolabs GmbH, Frankfurt, Germany) cells in LB or M9 (to obtain ^15N- and ^13C,^15N-labeled polypeptides) media according to the protocol described in [33, 36]. For protein purification, bacterial cell pellets were resuspended in lysis buffer (50 mM Tris-HCl pH = 7.5, 100 mM NaCl, 5% glycerol, 5 mM PIC (protease inhibitor cocktail)) and lysed via sonication (TT13 Sonotrode, 40% amplitude, for 6 × 1 min with a 0.5/0.5-s pulse). Lysates were centrifuged for 45 min at 17,000× g at 4 °C. Supernatants were loaded onto a His Trap Fast Flow 5 mL column (GE Healthcare, München, Germany) equilibrated in loading buffer (50 mM Tris-HCl pH = 8.0, 250 mM NaCl, 1% glycerol, 20 mM imidazole). The column was washed with loading buffer for 5–10 CV and protein was eluted with elution buffer (50 mM Tris-HCl pH = 8, 250 mM NaCl, 1% glycerol, 400 mM imidazole). Simultaneous TEV cleavage (1 mg TEV protease was added to 100 mg peptides/proteins) and buffer exchange to loading buffer via dialysis was performed over night at 4 °C. After reverse IMAC, proteins were concentrated with conical concentrators (Millipore Merck, Darmstadt, Germany) and loaded on a Superdex 10/60 75 or 200 column (GE Healthcare, München, Germany) for further purification and equilibration with ITC/NMR buffer (25 mM HEPES pH = 7.5, 100 mM NaCl). For structural NMR spectroscopy, buffer containing 50 mM Tris-HCl pH = 7.5, 100 mM NaCl was used. Prior to NMR experiments, TCEP and protease inhibitors cocktail were added to the samples to final concentrations 1 and 5 mM, respectively. Purified peptides and protein were concentrated and stored at −80 °C. The protein and peptide concentrations were calculated from the UV absorption at 280 nm by Nanodrop spectrophotometer (Thermo Scientific, Langenselbold, Germany).
All ITC experiments were performed at 25 °C using a VP-ITC microcalorimeter (Malvern Panalytical Ltd., Malvern, UK). Peptides in concentration of ~400 µM were titrated into 20–25 µM solutions of corresponding binding partner at a stirring speed of 307 rpm. The raw data were corrected on the dilution heat of peptides obtained in independent experiment (titration of the peptide in syringe into the ITC/NMR buffer in the measuring cell). Pre-titration delay was set to 180 s, interval between titration steps was experimentally adjusted to avoid kinetic contribution to the observed heat effects and set to 200 s. A single ITC profile was collected for each type of interaction. The ITC data were analyzed based on a “one-site” binding model with MicroCal ITC software implemented in Origin 7.0.

UBA5 AD^1–330 = experiment: ITC, UBA5 C-terminus vs UBA5 AD; details: 25 °C, R1-R2-R3^325–404 titrated into AD^1–330 solution
Excerpt: as §1
All proteins and peptides were expressed in E.Coli T7 Express (New England Biolabs GmbH, Frankfurt, Germany) cells in LB or M9 (to obtain ^15N- and ^13C,^15N-labeled polypeptides) media according to the protocol described in [33, 36]. For protein purification, bacterial cell pellets were resuspended in lysis buffer (50 mM Tris-HCl pH = 7.5, 100 mM NaCl, 5% glycerol, 5 mM PIC (protease inhibitor cocktail)) and lysed via sonication (TT13 Sonotrode, 40% amplitude, for 6 × 1 min with a 0.5/0.5-s pulse). Lysates were centrifuged for 45 min at 17,000× g at 4 °C. […] The protein and peptide concentrations were calculated from the UV absorption at 280 nm by Nanodrop spectrophotometer (Thermo Scientific, Langenselbold, Germany).
All ITC experiments were performed at 25 °C using a VP-ITC microcalorimeter (Malvern Panalytical Ltd., Malvern, UK). […] The ITC data were analyzed based on a “one-site” binding model with MicroCal ITC software implemented in Origin 7.0. […]

UFC1 = molecular target: T2, UFC1 (Homo sapiens, UniProt Q9Y3C8); experiment: NMR titration with UFC1; details: [15N,1H] TROSY-HSQC, 25 °C
T2 construct: Full length UFC1, residues 1–167; modified ubiquitin tag (Ub19) with TEV site (N, cleaved yes); made in house; host or cells: E. coli T7 Express
T2 sequence (Q9Y3C8 1-167): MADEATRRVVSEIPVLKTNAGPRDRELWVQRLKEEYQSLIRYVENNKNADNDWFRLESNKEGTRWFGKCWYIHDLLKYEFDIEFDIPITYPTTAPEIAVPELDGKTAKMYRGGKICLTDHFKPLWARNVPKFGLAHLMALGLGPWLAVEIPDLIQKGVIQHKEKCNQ
Procedure: To understand the role of the UBA5 C-terminal region in coordination of the binding events reported above on the molecular level, we performed NMR titration experiments. […] It seems, that these UBA5 residues form additional interactions with UFC1.
All NMR experiments were performed at a sample temperature of 25 °C on Bruker 600, 700, 800, 900, and 950 MHz spectrometers equipped with cryogenic probes, and a 500 MHz spectrometer equipped with a room-temperature triple-resonance probe. All NMR spectra were analyzed with the Sparky 3.114 software (University of California, San Francisco, USA). For NMR titration experiments, the non-labeled UBA5 peptides were titrated to 100 µM ^13C,^15N-labeled UFC1 to a final molar ratio of 1:8 (UFC1:UBA5 peptide). Conversely, 100 µM ^13C,^15N-labeled UBA5 peptides were titrated with non-labeled UFC1 to a final molar ratio 1:4 (UBA5 peptide:UFC1). 2D ^1H-^15N correlation spectra ([^15N,^1H] TROSY-HSQC) were recorded at each titration point. The same types of spectra were recorded to estimate binding of ^13C,^15N-labeled UFC1 (75 µM) to non-labeled UBA5, UBA5~UFM1 and UFM1 at 1:2 molar ratios. CSP values, Δδ, were calculated for each individual amide group using the formula Δδ = [(ΔδN/5)^2 + Δδ^2HN)]^1/2.

T1 sequence (P61960 2-83): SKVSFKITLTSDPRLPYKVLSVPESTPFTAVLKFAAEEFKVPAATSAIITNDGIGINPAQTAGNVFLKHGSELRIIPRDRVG

R1-R2-R3^325–404: UBA5 C-terminal part, residues 325–404 (recombinant, E. coli)
affinity change, UFM1 (UFM1; compared with isolated R1^325−357 peptide (ref 31)): does not change significantly
ΔG (UFM1; vs UFM1): -7.15 kcal/mol
−T*ΔS (UFM1; vs UFM1): -1.31 kcal/mol
ΔS (UFM1; vs UFM1, one-site model, single profile): 4.41 cal mol^−1 K^−1
KA*10^−6 (UFM1; vs UFM1, value is KA × 10^−6, ± = fitting error): 0.17 ± 0.02 M^−1
interaction with UBA5 AD (UBA5 AD^1–330): does not interact with the UBA5 AD
interaction with UBA5 AD (UBA5 AD^1–330; listed as R1‐R2‐R3325–404): No interactions
interaction with UFC1 (in words) (UFC1): mediated mostly by the UBA5 residues 386–404
